# Laboratory results: article PMC8888459 (2022)
# T1: Yah1-GST fusion protein (S. cerevisiae, UniProt Q12184 17-172)
# T1 chain: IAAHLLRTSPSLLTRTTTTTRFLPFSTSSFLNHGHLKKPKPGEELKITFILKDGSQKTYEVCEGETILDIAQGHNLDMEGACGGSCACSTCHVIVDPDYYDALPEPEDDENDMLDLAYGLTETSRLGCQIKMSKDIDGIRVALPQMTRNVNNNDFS
# B1: NIA complex (Nfs1–Isd11–ACPEc) (complex)
# chain 1: PAAGVKLDDNFSLETHTDIQAAAKAQASARASASGTTPDAVVASGSTAMSHAYQENTGFGTRPIYLDMQATTPTDPRVLDTMLKFYTGLYGNPHSNTHSYGWETNTAVENARAHVAKMINADPKEIIFTSGATESNNMVLKGVPRFYKKTKKHIITTRTEHKCVLEAARAMMKEGFEVTFLNVDDQGLIDLKELEDAIRPDTCLVSVMAVNNEIGVIQPIKEIGAICRKNKIYFHTDAAQAYGKIHIDVNEMNIDLLSISSHKIYGPKGIGAIYVRRRPRVRLEPLLSGGGQERGLRSGTLAPPLVAGFGEAARLMKKEFDNDQAHIKRLSDKLVKGLLSAEHTTLNGSPDHRYPGCVNVSFAYVEGESLLMALRDIALSSGSACTSASLEPSYVLHALGKDDALAHSSIRFGIGRFSTEEEVDYVVKAVSDRVKFLRELSPLWEMVQEGIDLNSIKWSGH
# chain 2: MPGFTAPTRRQVLSLYKEFIKNANQFNNYNFREYFLSKTRTTFRKNMNQQDPKVLMNLFKEAKNDLGVLKRQSVISQMYTFDRLVVEPLQGRKH
# chain 3: MSTIEERVKKIIGEQLGVKQEEVTNNASFVEDLGADSLDTVELVMALEEEFDTEIPDEEAEKITTVQAAIDYINGHQA
# Experiments:
# [1] = molecular target: T1, Yah1-GST fusion protein; experiment: BLI; anaerobic, reduced Yah1 (Fig. 6C); kd2 of 2:1 fit, second site
# [2] = molecular target: T1, Yah1-GST fusion protein; experiment: BLI; KD2 of 2:1 heterogeneous ligand fit (54%), second site
# [3] = molecular target: T1, Yah1-GST fusion protein; experiment: BLI; anaerobic, reduced Yah1 (Fig. 6C); KD1 of 2:1 fit (40%)
# [4] = molecular target: T1, Yah1-GST fusion protein; experiment: BLI; kd2 of 2:1 fit, second site
# [5] = molecular target: T1, Yah1-GST fusion protein; experiment: BLI; KD1 of 2:1 heterogeneous ligand fit (46%)
# [6] = molecular target: T1, Yah1-GST fusion protein; experiment: BLI; anaerobic, reduced Yah1; kd2 of 2:1 fit, second site
# [7] = molecular target: T1, Yah1-GST fusion protein; experiment: BLI; anaerobic, reduced Yah1 (Fig. 6C); KD2 of 2:1 fit (60%), second site
# [8] = molecular target: T1, Yah1-GST fusion protein; experiment: BLI; anaerobic, reduced Yah1; KD1 of 2:1 fit (61%)
# [9] = molecular target: T1, Yah1-GST fusion protein; experiment: BLI; kd1 of 2:1 fit
# [10] = molecular target: T1, Yah1-GST fusion protein; experiment: BLI; anaerobic, reduced Yah1; kd1 of 2:1 fit
# [11] = molecular target: T1, Yah1-GST fusion protein; experiment: BLI; anaerobic, reduced Yah1; KD2 of 2:1 fit (39%), second site
# [12] = molecular target: T1, Yah1-GST fusion protein; experiment: BLI; anaerobic, reduced Yah1 (Fig. 6C); kd1 of 2:1 fit
binder,measurement,setting,value
B1,koff,[1],0.00248 s⁻¹
same,Kd,[2],280 nM
same,Kd,[3],0.446 nM
same,koff,[4],0.0267 s⁻¹
same,Kd,[5],0.0966 nM
same,koff,[6],0.00204 s⁻¹
same,Kd,[7],65.8 nM
same,Kd,[8],0.82 nM
same,koff,[9],3.54e-07 s⁻¹
same,koff,[10],3.88e-07 s⁻¹
same,Kd,[11],114 nM
same,koff,[12],4.91e-07 s⁻¹
